Experimental data reported in publication PMC5983490, “White-rot basidiomycetes Junghuhnia nitida and Steccherinum bourdotii: Oxidative potential and laccase properties in comparison with Trametes hirsuta and Coriolopsis caperata” (PLoS ONE, 2018).
Like-named read-outs stand apart in the source and are kept apart here.

What was measured:
[1] = test system: T1, SbL (Steccherinum bourdotii laccase); assay: spectrophotometric oxidation, […] nm, non-linear fit; assay type: biochemical; conditions: 0.1 M McIlvaine buffer pH 4.5, 25 °C; read-out: Steccherinaceae group / SbL
T1 construct: peptides most similar to S. murashkinskyi laccase 2 / A. faginea laccase A

[2] = test system: T2, JnL (Junghuhnia nitida laccase); assay: spectrophotometric oxidation, […] nm, non-linear fit; assay type: biochemical; conditions: 0.1 M McIlvaine buffer pH 4.5, 25 °C; read-out: Steccherinaceae group / JnL
T2 construct: peptides most similar to S. murashkinskyi laccase 2 / A. faginea laccase A

[3] = test system: T1, SbL (Steccherinum bourdotii laccase); assay: spectrophotometric oxidation, […] nm, non-linear fit; assay type: biochemical; conditions: 0.1 M McIlvaine buffer pH 4.5, 25 °C; read-out: Steccherinaceae group / SbL; remark: listed apart in the source
[4] = test system: JnL (Junghuhnia nitida laccase); conditions: read-out: Steccherinaceae group / JnL; 0.1 M McIlvaine buffer pH 4.5, 25 °C
[5] = test system: T1, SbL (Steccherinum bourdotii laccase); assay: spectrophotometric oxidation, […] nm, non-linear fit; assay type: biochemical; conditions: 0.1 M McIlvaine buffer pH 4.5, 25 °C; read-out: Steccherinaceae group / SbL; remark: listed apart in the source
[6] = test system: T2, JnL (Junghuhnia nitida laccase); assay: spectrophotometric oxidation, […] nm, non-linear fit; assay type: biochemical; conditions: 0.1 M McIlvaine buffer pH 4.5, 25 °C; read-out: Steccherinaceae group / JnL; remark: listed apart in the source
[7] = test system: T2, JnL (Junghuhnia nitida laccase); assay: oxygen consumption, Clark-type electrode, non-linear fit; assay type: biochemical; conditions: 0.1 M citrate-phosphate buffer pH 4.5, 25 °C; read-out: Steccherinaceae group / JnL
Source text: oxygen consumption, Clark-type electrode, non-linear fit on JnL (Junghuhnia nitida laccase)

[8] = test system: T1, SbL (Steccherinum bourdotii laccase); assay: as above; assay type: biochemical; conditions: 0.1 M citrate-phosphate buffer pH 4.5, 25 °C; read-out: Steccherinaceae group / SbL
Source text: oxygen consumption, Clark-type electrode, non-linear fit on SbL (Steccherinum bourdotii laccase)

[9] = test system: T1, SbL (Steccherinum bourdotii laccase); assay: spectrophotometric oxidation, […] nm, non-linear fit; assay type: biochemical; conditions: 0.1 M McIlvaine buffer pH 4.5, 25 °C; read-out: Steccherinaceae group / SbL; remark: listed apart in the source
[10] = test system: T2, JnL (Junghuhnia nitida laccase); assay: spectrophotometric oxidation, […] nm, non-linear fit; assay type: biochemical; conditions: 0.1 M McIlvaine buffer pH 4.5, 25 °C; read-out: Steccherinaceae group / JnL; remark: listed apart in the source
[11] = test system: SbL (Steccherinum bourdotii laccase); conditions: read-out: Steccherinaceae group / JnL; 0.1 M McIlvaine buffer pH 4.5, 25 °C
[12] = test system: JnL (Junghuhnia nitida laccase); conditions: read-out: Steccherinaceae group / JnL; 0.1 M McIlvaine buffer pH 4.5, 25 °C; remark: listed apart in the source
purified protein [13] = substrate: COc1cc(C=NN=Cc2cc(OC)c(O)c(OC)c2)cc(OC)c1O; assay: purified protein; assay type: biochemical, Cerrena caperata; conditions: 0.1 M McIlvaine buffer pH 4.5, 25 °C
purified protein [14] = substrate: COc1cc(/C=C/C(=O)O)cc(OC)c1O; assay: purified protein; assay type: biochemical, Cerrena caperata; conditions: 0.1 M McIlvaine buffer pH 4.5, 25 °C
[15] = substrate: COc1cccc(OC)c1O; assay: purified protein, by the assay type; set-up: Laccase substrate oxidation kinetics, spectrophotometric initial rates, 25 °C, McIlvaine buffer pH 4.5; conditions: 25.0 °C
Experimental: (§1) Kinetic constants were measured spectrophotometrically using a PerkinElmer Lambda 35 spectrophotometer (USA) at 25°C. […] 10 μl of enzyme solution at a concentration of 1 mg·ml^-1 (50 mM potassium phosphate buffer pH 6.5) was added to 2 ml substrate solution in 0.1 M McIlvaine buffer, pH 4.5. The reaction rate was measured by monitoring of the absorbance change during 3 min. […] It is interesting that syringyl-type substrates like 2,6-DMP, sinapic acid and syringaldazine were better in terms of Km and kcat/Km values for JnL and SbL compared to CcL and ThL.

[16] = substrate: COc1ccccc1O; assay: purified protein, by the assay type; set-up: Laccase substrate oxidation kinetics, spectrophotometric initial rates, 25 °C, McIlvaine buffer pH 4.5; conditions: 25.0 °C
Experimental: as §1

[17] = substrate: Oc1ccccc1O; assay: purified protein, by the assay type; set-up: Laccase substrate oxidation kinetics, spectrophotometric initial rates, 25 °C, McIlvaine buffer pH 4.5; conditions: 25.0 °C
Experimental: as §1

[18] = substrate: O=C(O)c1cc(O)c(O)c(O)c1; assay: purified protein, by the assay type; set-up: Laccase substrate oxidation kinetics, spectrophotometric initial rates, 25 °C, McIlvaine buffer pH 4.5; conditions: 25.0 °C
Experimental: as §1

purified protein [19] = substrate: COc1cc(/C=C/C(=O)O)ccc1O; assay: purified protein; conditions: 0.1 M McIlvaine buffer pH 4.5, 25 °C
purified protein [20] = substrate: COc1cccc(OC)c1O; assay: purified protein; assay type: biochemical, Trametes hirsuta; conditions: 0.1 M McIlvaine buffer pH 4.5, 25 °C
purified protein [21] = substrate: COc1cc(/C=C/C(=O)O)cc(OC)c1O; assay: purified protein; assay type: biochemical, Trametes hirsuta; conditions: 0.1 M McIlvaine buffer pH 4.5, 25 °C
[22] = substrate: COc1cc(C=NN=Cc2cc(OC)c(O)c(OC)c2)cc(OC)c1O; assay: purified protein, by the assay type; set-up: Laccase substrate oxidation kinetics, spectrophotometric initial rates, 25 °C, McIlvaine buffer pH 4.5; conditions: 25.0 °C
Experimental: as §1

[23] = substrate: COc1cc(/C=C/C(=O)O)ccc1O; assay: purified protein, by the assay type; set-up: Laccase substrate oxidation kinetics, spectrophotometric initial rates, 25 °C, McIlvaine buffer pH 4.5; conditions: 25.0 °C
Experimental: as §1

[24] = substrate: COc1cc([C@@H]2OC[C@@H]3[C@H]2CO[C@H]3c2ccc(O)c(OC)c2)ccc1O; assay: oxygen consumption, Clark-type electrode, non-linear fit; assay type: biochemical, Trametes hirsuta; conditions: 0.1 M citrate-phosphate buffer pH 4.5, 25 °C
Source text: oxygen consumption, Clark-type electrode, non-linear fit on ThL (Trametes hirsuta laccase)

`COc1cccc(OC)c1O` [2,6-DMP] gave a Km [1] of 8 ± 1 µM and a Km [2] of 7 ± 1 µM.

Work on `COc1cc(/C=C/C(=O)O)ccc1O` [Ferulic acid] yielded a Km [3] of 19 ± 2 µM and a Km [4] of 19 ± 1 µM.

`COc1cc(/C=C/C(=O)O)cc(OC)c1O` [Sinapic acid] was tested, and the Km [5] was 8 ± 1 µM and the Km [6] was 9 ± 1 µM.

With `COc1cc([C@@H]2OC[C@@H]3[C@H]2CO[C@H]3c2ccc(O)c(OC)c2)ccc1O` [Pinoresinol] the Km [7] was 89 ± 12 µM and the Km [8] was 149 ± 22 µM.

With `COc1cc(C=NN=Cc2cc(OC)c(O)c(OC)c2)cc(OC)c1O` [Syringaldazine] the Km [9] was 1 ± 0.3 µM and the Km [10] was 2 ± 0.4 µM.

Work on `CCn1c(=NN=c2sc3cc(S(=O)(=O)O)ccc3n2CC)sc2cc(S(=O)(=O)O)ccc21` [ABTS] yielded a Km [11] of 17 ± 2 µM and a Km [12] of 17 ± 2 µM.

B1: CcL (Coriolopsis caperata laccase) (Cerrena caperata) (protein)
chain: GIGPVTDLTISDGPVSPDGFTRQAILVNNQFPSPLITGNKGDRFQLNVIDNMNNHTMLKSTSIHWHGFFQHGTNWADGPAFVNQCPISPGHSFLYDFQVPDQAGTFWYHSHLSTQYCDGLRGPIVVYDPQDPHKDLYDVDDDSTVITLADWYHLAAKVGPAVPTADATLINGLGRSISTLNADLAVISVTKGKRYRFRLVSLSCDPNHTFSIDGHTMTVIEADSVNLKPQVVDSIQIFAAQRYSFVLNADQDIGNYWIRAMPNSGTRNFDGGVNSAILRYDGADPVEPTTTQTPSSQPLVESALTTLEGTAAPGSPTAGGVDLAINMAFGFAGGRFTINGASFTPPTVPVLLQILSGAQNAQDLLPTGSVYSLPANADIEISLPATAAAPGFPHPFHLHGHTFAVVRSAGSSTYNYANPVYRDVVSTGSPGDNVTIRFRTDNPGPWFLHCHIDFHLEAGFAVVMAEDIPDVAAVNPVPQAWSDLCPTYNALDPNDQ
B1 gave a Km (purified protein [13]) of 5 ± 0.3 µM, a kcat (purified protein [13]) of 122 ± 2 s⁻¹ and a kcat/Km (purified protein [13]) of 2.44e+07 M⁻¹ s⁻¹. For the same molecule, the Km (purified protein [14]) was 17 ± 2 µM, the kcat (purified protein [14]) was 324 ± 31 s⁻¹ and the kcat/Km (purified protein [14]) was 1.91e+07 M⁻¹ s⁻¹. For the same molecule, the Km [15] was 65 µM, the kcat [15] was 121 ± 8 s⁻¹ and the kcat/Km [15] was 1.86e+06 M⁻¹ s⁻¹. The Km [16] was 696 µM, the kcat [16] was 165 ± 12 s⁻¹ and the kcat/Km [16] was 237000 M⁻¹ s⁻¹. The Km [17] was 815 µM, the kcat [17] was 269 ± 6 s⁻¹ and the kcat/Km [17] was 330000 M⁻¹ s⁻¹. The Km [18] was 129 µM, the kcat [18] was 55 ± 2 s⁻¹ and the kcat/Km [18] was 434000 M⁻¹ s⁻¹. For the same molecule, the Km (purified protein [19]) was 20 ± 2 µM, the kcat (purified protein [19]) was 234 s⁻¹ and the kcat/Km (purified protein [19]) was 1.17e+07 M⁻¹ s⁻¹.

B2: ThL (Trametes hirsuta laccase) (Trametes hirsuta) (protein)
chain: AVGPVADLTITDAAVSPDGFSRQAVVVNGVTPGPLVAGNIGDRFQLNVIDNLTNHTMLKSTSIHWHGFFQHGTNWADGPAFINQCPISPGHSFLYDFQVPDQAGTFWYHSHLSTQYCDGLRGPFVVYDPNDPHASRYDVDNDDTVITLADWYHTAAKLGPRFPGGADATLINGKGRAPSDSPAELSVIKVTKGKRYRFRLVSLSCNPNHTFSIDGHNLTIIEVDSVNSQPLEVDSIQIFAAQRYSFVLDANQAVDNYWIRANPNFGNVGFDGGINSAILRYDGAPAVEPTTNQTTSVKPLNEVDLHPLVSTPVPGSPSSGGVDKAINMAFNFNGSNFFINGASFVPPTVPVLLQILSGAQTAQDLLPSGSVYVLPSNASIEISFPATAAAPGAPHPFHLHGHTFAVVRSAGSTVYNYDNPIFRDVVSTGTPAAGDNVTIRFDTNNPGPWFLHCHIDFHLEGGFAVVMAEDTPDVKAVNPVPQAWSDLCPTYDALDPNDQ
For B2, the Km (purified protein [20]) was 24 ± 2 µM, the kcat (purified protein [20]) was 128 ± 11 s⁻¹ and the kcat/Km (purified protein [20]) was 5.33e+06 M⁻¹ s⁻¹. For the same molecule, the Km (purified protein [21]) was 13 ± 1 µM, the kcat (purified protein [21]) was 317 ± 23 s⁻¹ and the kcat/Km (purified protein [21]) was 2.44e+07 M⁻¹ s⁻¹. The Km [22] was 34 µM, the kcat [22] was 131 ± 10 s⁻¹ and the kcat/Km [22] was 3.85e+06 M⁻¹ s⁻¹. The Km [16] was 173 µM, the kcat [16] was 162 ± 10 s⁻¹ and the kcat/Km [16] was 976000 M⁻¹ s⁻¹. It also gave a Km [17] of 183 µM, a kcat [17] of 302 ± 27 s⁻¹ and a kcat/Km [17] of 1.65e+06 M⁻¹ s⁻¹. For the same molecule, the Km [18] was 223 µM, the kcat [18] was 58 ± 3 s⁻¹ and the kcat/Km [18] was 260000 M⁻¹ s⁻¹. It also gave a Km [23] of 28 µM, a kcat [23] of 270 ± 25 s⁻¹ and a kcat/Km [23] of 9.64e+06 M⁻¹ s⁻¹. The Km [24] was 61 ± 8 µM, the kcat [24] was 73 ± 3 s⁻¹ and the kcat/Km [24] was 1.2e+06 M⁻¹ s⁻¹.
